Test [1] has as its target Recombinant human LDL receptor (LDLR) (human) (UniProt P01130). Description: AFM force spectroscopy; LDLR on the AFM probe through PEG (traditional immersion method), LDL immobilised on mica; PBS pH 7.4, 37 °C; n = 200 interactions.
For test [2] the target is unchanged. Description: AFM force spectroscopy; receptor on the AFM probe tip through PEG (micro-droplet method), lipoprotein immobilised on mica; PBS pH 7.4, 37 °C, loading force 0.5 nN for 2 s, loading speed 200 nm/s; n = 200 interactions.
In test [3] the target is Recombinant human CD36 (human) (UniProt P16671). The description is as above.

Recombinant human LDL receptor (LDLR) (human), sequence (P01130 22-788): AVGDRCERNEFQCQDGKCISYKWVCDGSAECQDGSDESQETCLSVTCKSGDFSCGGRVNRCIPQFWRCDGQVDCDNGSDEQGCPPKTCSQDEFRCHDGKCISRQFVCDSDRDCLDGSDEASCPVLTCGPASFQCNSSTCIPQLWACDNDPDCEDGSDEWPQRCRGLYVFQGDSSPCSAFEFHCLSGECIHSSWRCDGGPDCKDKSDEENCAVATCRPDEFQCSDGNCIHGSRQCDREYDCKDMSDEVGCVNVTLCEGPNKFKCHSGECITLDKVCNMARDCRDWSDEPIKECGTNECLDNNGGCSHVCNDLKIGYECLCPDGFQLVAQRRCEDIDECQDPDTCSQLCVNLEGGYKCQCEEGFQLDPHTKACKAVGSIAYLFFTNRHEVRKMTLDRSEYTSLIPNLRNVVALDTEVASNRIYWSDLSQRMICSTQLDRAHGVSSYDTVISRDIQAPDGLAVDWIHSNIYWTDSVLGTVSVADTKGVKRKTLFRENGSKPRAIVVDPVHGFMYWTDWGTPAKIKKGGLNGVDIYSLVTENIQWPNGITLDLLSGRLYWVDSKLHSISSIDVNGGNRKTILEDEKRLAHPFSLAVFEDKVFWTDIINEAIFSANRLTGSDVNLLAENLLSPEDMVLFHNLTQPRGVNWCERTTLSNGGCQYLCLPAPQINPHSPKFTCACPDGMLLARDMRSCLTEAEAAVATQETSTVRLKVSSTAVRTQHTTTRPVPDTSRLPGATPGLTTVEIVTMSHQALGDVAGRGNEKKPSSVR

As for “Human low-density lipoprotein (LDL), P04114 28-4563”, the average specific interaction force is 322 pN in test [1] and 231 pN in test [2]. “Human oxidized low-density lipoprotein (oxLDL) (from UniProt P04114 28-4563) (complex)”: the average interaction force in test [3] was 229 pN.

The values above are taken from publication PMC11921551.
